Reference: PMC6899190 (Nature structural & molecular biology, 2019)
Changes are numbered by the printed parent chain. In names and notes the source's numbering stands.

B1: A3F_(CTDm) D260R/D261R (domain or fragment)
chain: KEILRNPMEAMDPHIFYFHFKNLRKAYGRNESWLCFTMEVVKHHSPVSWKRGVFRNQVDPETGRHAERCFLSWFCRRILSPNTNYEVTWYTSWSPCPECAGEVAEFLARHSNVNLTIKTARLYYFKDTDAAEGLRSLSQEGASVEIMGYKDFKYCWENFVYNDDEPFKPWDGLDYNFLDLDSKLQEILE
B2: A3F_(CTDm) R293D (domain or fragment)
chain: B1 chain with R76D, R77D, R109D
B3: A3F_(CTDm) P265A (domain or fragment)
chain: B1 chain with R76D, R77D, P81A
B4: A3F_(CTDm) D347R (domain or fragment)
chain: B1 chain with R76D, R77D, D163R

Columns and labels:
[1] = target: MBP-tagged Vif–CBFβ–EloB–EloC complex (wild type) (HIV-1 (pNL4–3) | human | , UniProt P12504;Q13951-2;Q15370;Q15369); test: pull-down
[2] = target: MBP-tagged Vif–CBFβ–EloB–EloC complex with CBFβ E54K (HIV-1 (pNL4–3) | human | , UniProt P12504;Q13951-2;Q15370;Q15369, E54K); test: pull-down
[3] = target: truncated Vif–CBFβ subcomplex (Vif176Δ114–157 with CBFβ151) (HIV-1 (pNL4–3) | human, UniProt P12504;Q13951); test: SEC

Binder	binding result [1]	binding result [2]	binding result [3]
B1	binds		
B2		binds	
B3	binds		
B4	binds		binds
